Measured values: publication PMC10836093, “Ensemble-based design of tau to inhibit aggregation while preserving biological activity” (Research Square, 2024)

Target: the molecule itself
Assay: ThT fluorescence aggregation assay; peptide alone, 50-800 μM in 1X PBS pH 7.4, 1 mM DTT, 25 μM ThT, 37 °C, no inducer; self-assembly into amyloid fibrils, t1/2max from fitted curves

| Protein | t1/2max of ThT aggregation at 100 μM | t1/2max of ThT aggregation at 800 μM |
| --- | --- | --- |
| Ac-KDNIKHVSGGGSVQIVYK-NH2 (also called mutant 4R fragment; source: synthetic peptide (Genscript, >95% purity), disaggregated in TFA) [P301S R2R3_(294-311) peptide] | 52 ± 14 h | 7.5 ± 1 h |
| Ac-KDNIKHVPGGGSVQIVYK-NH2 (also called 4R-derived peptide; source: synthetic peptide (Genscript, >95% purity), disaggregated in TFA) [WT R2R3_(294-311) peptide] |  | 46 ± 13 h |
